In one experiment the target is amyloid beta monomer (Homo sapiens, UniProt P05067). Put plainly: saturation binding/Scatchard.
In a further experiment the target is amyloid beta oligomers (Homo sapiens, UniProt P05067). Nature of the experiment: saturation binding/Scatchard.
amyloid beta oligomers, sequence (P05067 672-713): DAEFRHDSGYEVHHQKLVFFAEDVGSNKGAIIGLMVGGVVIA

amyloid beta monomer, sequence (P05067 672-713): as above

B1: BP (VEGF-derived peptide) (protein)
chain: MTDRQTDTAPSPSYHLLPGRRRTVDAAASRGQGPEPAPGGGVEGVGARGVALKLFVQLLGCSRFGGAVVRAGEAEPSGAARSASSGREEPQPEEGEEEEEKEEERGPQWRLGARKPGSWTGEAAVCADSAPAARAPQALARASGRGGRVARRGAEESGPPHSPSRRGSASRAGPGRASETMNFLLSWVHWSLALLLYLHHAKWSQAAPMAEGGGQNHHEVVKFMDVYQRSYCHPIETLVDIFQEYPDEIEYIFKPSCVPLMRCGGCCNDEGLECVPTEESNITMQIMRIKPHQGQHIGEMSFLQHNKCECRPKKDRARQEKKSVRGKGKGQKRKRKKSRYKSWSVPCGPCSERRKHLFVQDPQTCKCSCKNTDSRCKARQLELNERTCRCDKPRR
With B1, the equilibrium dissociation constant (Kd) with amyloid beta monomer came to 19 µM; in the experiment with amyloid beta oligomers, 0.012 µM.

For orientation: Kd means the concentration at which binding is half-saturated. A high value points to a looser complex.

Values taken from PMC10497828 (2023).
